Assay results: article PMC9032829
“And” between values parts separate entries of the source, which are not always exact repeats. Equal entries are not always repeated.

Target: entire receptor binding domain (RBD) of SARS-CoV-2 Spike protein (SARS-CoV-2) (UniProt P0DTC2)
Assay: SPR

soluble αvβ3 integrin (from UniProt P06756;P05106) (complex)
Kd: 6.3 nM and 59.3 nM
